Test results published in paper PMC5436579 (2017).

Target: the molecule itself

B1: AmpR effector-binding domain (protein)
chain: LLERFEGGHYRDVLTVGAVGTFTVGWLLPRLEDFQARHPFIDLRLSTHNNRVDIAAEGLDYAIRFGGGAWHGTEALALFEAPLTVLCCPEVAAQLHSPADLLQHTLLRSYRADEWPLWFQAAGLPAHAPLTRSIVFDTSLAMLEAARQGVGVALAPAAMFARQLASESIRRPFATEVSTGSYWLTRLQSRGETSAMLAFRGWLLEMAAVEARGR
  Kd: < 1000 nM
